Assay results as given in article PMC10283294, “Chromosome-level genome assembly of Murraya paniculata sheds light on biosynthesis of floral volatiles” (BMC Biology, 2023).
Numbering of substitutions follows the chain as printed. Each block holds one molecule with its values, some of them ahead of it.

Columns and labels:
Assay in all cases: GC-MS of phenylacetaldehyde, Lineweaver-Burk
Me2G_2382 (PAAS) = biological target: T1, Me2G_2382 (PAAS) (Murraya paniculata, UniProt Z9M7G4IQ32); format: biochemical; settings: pH 8.5 Tris-HCl, 28 °C, 0.2 mM PLP, 0.1 mM EDTA
T1 sequence (Z9M7G4IQ32 1-505): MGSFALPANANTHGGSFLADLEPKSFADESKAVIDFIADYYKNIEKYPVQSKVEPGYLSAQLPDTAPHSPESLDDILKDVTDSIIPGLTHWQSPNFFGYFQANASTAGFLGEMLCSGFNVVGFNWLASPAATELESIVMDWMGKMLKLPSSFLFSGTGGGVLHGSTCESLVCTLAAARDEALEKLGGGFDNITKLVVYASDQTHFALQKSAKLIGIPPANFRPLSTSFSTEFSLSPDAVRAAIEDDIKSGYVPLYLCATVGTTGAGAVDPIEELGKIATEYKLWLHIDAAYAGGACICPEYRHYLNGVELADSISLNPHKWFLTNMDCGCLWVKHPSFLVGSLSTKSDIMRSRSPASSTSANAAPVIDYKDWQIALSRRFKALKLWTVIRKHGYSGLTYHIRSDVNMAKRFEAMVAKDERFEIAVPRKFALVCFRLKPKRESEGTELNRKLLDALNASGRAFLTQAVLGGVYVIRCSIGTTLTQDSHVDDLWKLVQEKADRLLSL

Me3G_2284 (PAAS) = format: biochemical, Murraya paniculata; settings: pH 8.5 Tris-HCl, 28 °C, 0.2 mM PLP, 0.1 mM EDTA; read-out: apparent Km
Me4G_0535 (PAAS) = format: biochemical, Murraya paniculata; settings: pH 8.5 Tris-HCl, 28 °C, 0.2 mM PLP, 0.1 mM EDTA; read-out: apparent Km
Me5G_1302 (PAAS) = format: biochemical, Murraya paniculata; settings: pH 8.5 Tris-HCl, 28 °C, 0.2 mM PLP, 0.1 mM EDTA; read-out: apparent Km
Me3G_1222 (PAAS) = biological target: T2, Me3G_1222 (PAAS) (Murraya paniculata, UniProt Z9VGT8ZCM8); format: biochemical; settings: pH 8.5 Tris-HCl, 28 °C, 0.2 mM PLP, 0.1 mM EDTA; read-out: apparent Km
T2 sequence (Z9VGT8ZCM8 1-380): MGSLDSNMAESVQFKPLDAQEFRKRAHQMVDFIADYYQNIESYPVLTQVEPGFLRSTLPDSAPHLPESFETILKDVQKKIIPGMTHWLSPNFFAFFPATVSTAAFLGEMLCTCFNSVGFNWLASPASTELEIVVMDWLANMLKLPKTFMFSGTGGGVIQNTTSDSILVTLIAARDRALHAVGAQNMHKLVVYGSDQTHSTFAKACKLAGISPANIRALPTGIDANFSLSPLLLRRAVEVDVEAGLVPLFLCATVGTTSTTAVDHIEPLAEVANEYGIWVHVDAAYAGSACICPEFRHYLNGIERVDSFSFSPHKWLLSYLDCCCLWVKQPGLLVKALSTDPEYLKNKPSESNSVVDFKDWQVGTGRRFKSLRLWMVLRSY

[1] = substrate: N[C@@H](Cc1ccccc1)C(=O)O; format: biochemical, Murraya paniculata; settings: pH 8.5 Tris-HCl, 28 °C, 0.2 mM PLP, 0.1 mM EDTA

Km (Me3G_2284 (PAAS)): 36.6 ± 4.35 mM | Km (Me4G_0535 (PAAS)): 2 ± 0.54 mM | Km (Me5G_1302 (PAAS)): 9.89 ± 1.77 mM | Km (Me3G_1222 (PAAS)): 9.99 ± 0.46 mM
Molecule: N[C@@H](Cc1ccccc1)C(=O)O [L-phenylalanine]
apparent Km (Me2G_2382 (PAAS)): kinetic characterisation of purified recombinant PAAS revealed an apparent Km for L-phenylalanine (L-Phe)

B1: Me1G_2960 (PAAS) (Murraya paniculata) (protein)
chain: MDAEQLRENAHKMVDFIADYYKSIENFPVLSQVQPGYLHNLIPDSAPNHPESLQNVLDDIQEKILPGVTHWQSPNYFAYFPSNSSVAGFLGEMLSAGLNIVGFSWITSPAATELEMIVLDWLAKLLKLPEDFLSTGQGGGVIQGTASEAVLVVLLAARDEALKRVGKNSLEKLVVYASDQTHSALQKACQIGGIHRQNFRVLKTDSSTNYSLSPDSLAEAISRDLTMGLIPFFLGATVGTTSSTAVDPLLALGNIAKSNGMWFHVDAAYAGSACICPEYRQYIDGVEKADSFNMNAHKWFLTNFDCSALWVKDRNTLIQSLSTNPEFLKNKVSFYFSVHNMFLYYFLAQLSRPKSKSHLFVFVHINCIMNCPFNNVMLTVVELSTLSGENGNILASQANMVVDYKDWQIPLGRRFRSLKLWMVLRLYGLENLQGYIRNHIQLAKHFEGLVAQDSRFEVVTPRIFSLVCFRLLPPHNDEDHGNKLNHNLLDAVNSTGKIFISHTVLSGKYILRFAVGAPLTEGRHVNAAWEVVRDRASALLARLSTE
Km [1]: 1.7851 ± 0.66 mM | kcat/Km [1]: 55.9 M⁻¹ s⁻¹

B2: Me3G_0317 (PAAS) (Murraya paniculata) (protein)
chain: MGSLTSDLELEYNSNSSINLLDSEEFRRQGHMFVDFMAEYYKTIDKYPVRSQVEPGYLKKRLPESAPYSPESVETILEDVQEHIVPGITHWQSPNYFAYFPATSSVPGILGEMLSSGFNVVGMDWISSPAAVELENIVMDWLGQMLNLPKSFLFSGNGGGVIQGTTCEALLCTLTAARDRVLKKIGRENISKLVVYSSDQTHCAFQKAAQIVGIDRKNIRAIKTTKSSSYGLSAESVLSQINLDVEAGLIPLFLCATVGTTAITAVDPLRPLCDVAKQFGMWVHVDAAYAGSACICPEFRHFIDGVECVDSFSFNPHKWLFTSLDCCCLWVKDPSCLLSTLSTNPHYLKNEATDQEPKGQEVGYKDWQITLCRRFRSLKLWLVIRNFGVANLRNFIRSHVGMAKLFERLVHSDKRFEVAFPRNFSLVCFRVTPSAVMDKLRTKYKNGTHDQYRQLSEEERTNEFNRELLESINVSGKVFMTHAIVGGIYVLRFAAGNSMTMESHVREAWTVVQEHLEAF
Km [1]: 2.7821 ± 0.73 mM | kcat/Km [1]: 45.2 M⁻¹ s⁻¹

B3: Me2G_2379 (PAAS) (Murraya paniculata) (protein)
chain: MGSFALPPNGNTHGRSFSADLEPKSFADEAKAVIDFIADYYKNIEKYPVQSKVEPGYLSAQLPDTAPHSPESLDDILKDVTDSIIPGLTHWQSPNFFGYFQANASTAGFLGEMLCSGFNVVGFNWLASPAATELESIVMDWMGKMLKLPSSFLFSGTGGGVLHGSTCESLVCTLAAARDEVLEKLGGGFDNITKLVVYASDQTHFALQKSAKLIGIPPANFRPLSTSFSTEFSLSPDAVRAAIEDDIKSGYVPLYLCATVGTTGAGAVDPIEELGKIATEYKLWLHIDAAYAGGACICPEYRHYLNGVELADSISLNPHKWFLTNMDCGCLWVKHPSFLVGSLSTKSDIMRSRSPASSTSANAAPVIDYKDWQIALSRRFKALKLWTVIRKHGYSGLTYHIRSDVNMAKRFEAMVAKDERFEIAVPRKFALVCFRLKPKRESEGTELNRKLLDALNASGRAFLTQAVLGGVYVIRCSIGTTLTQDSHVDDLWKLVQEKADRLLSLQEPEHARC
Km [1]: 3.7265 ± 0.83 mM | kcat/Km [1]: 100 M⁻¹ s⁻¹

B4: Me2G_2381 (PAAS) (Murraya paniculata) (protein)
chain: B3 chain with P8A, G10A, R15G, S360R, R512G
Km [1]: 1.7943 ± 0.60 mM | kcat/Km [1]: 62.9 M⁻¹ s⁻¹
